Results published in the DeepSol protein solubility set.

Test: soluble on expression in E. coli; label from the status in PepcDB or PDB records

| Sequence | soluble on expression in E. coli |
| --- | --- |
| MSNQYGDKNLKIFSLNSNPELAKEIADIVGVQLGKCSVTRFSDGEVQINIEESIRGCDCYIIQSTSDPVNEHIMELLIMVDALKRASAKTINIVIPYYGYARQDRKARSREPITAKLFANLLETAGATRVIALDLHAPQIQGFFDIPIDHLMGVPILGEYFEGKNLEDIVIVSPDHGGVTRARKLADRLKAPIAIIDKRRPRPNVAEVMNIVGNIEGKTAILIDDIIDTAGTITLAANALVENGAKEVYACCTHPVLSGPAVERINNSTIKELVVTNSIKLPEEKKIERFKQLSVGPLLAEAIIRVHEQQSVSYLFS | soluble |
| MGFLNKLLSSEGPRKPKVKFDLQKCKVLLKGGENRIRLQKSKLAVCNLLASPVPALKNLFNKNSVKLQQREVAVLLEGGKDELARIRAEQMVRDELLIESYEIVEVLCETLLTRHNLLALNFHATKENPYPPLPPEIAEAVCSIAFASCRLDASELQTLTEMLASRFGPELIDSACAGQPSQRVWGVNSLVNPRLYSKLLYSVPDGNVVLQKLQDIADMFQLEWKAPAEFEELKDHSVLDSTASTPVFSGNAQRARYLPEASSFSDEKIGDDVFCTNESEQTEEGRDPSDDLSARLEALKRNR | not soluble |
| MKNLENYFDKAELQHFFECLTDDDNTPQASVFFRLAAFTGMRKSEMLCLEWSDIDFSNHTIRVNKTQSRGDGARLLVQAPKTARSNRTVYLDPTTIKILQHWQVDQKKWLLRFGFNINQGNHYVFANENNEMFQPSKPRKWLEHTLTKYDLKHVTVHAFRHTYATLAFEAHASIKSVQDQLGHSSYRTTLDIYTAVTAKQKNEATEKLANYLNFLEHHHHHH | not soluble |
| MSLNSTLHIPKAEIHVHLEATITPSLCRKFAERNKVKLSEDIFGSEYAYQWEDFYDFIKRYDIVTGVIYTPEDYYELTYEYLKECASYNVLYVEAMVSSTHAKAKGMTYHSFLDSVHQASQDAERDFGIVSRYLMNGIRHLGADSVQETAKEVLNNPHPALVGFGLAGDELNFPPNLFTKTFDMLKQESYPITVHAGEWDGPENIRNAIHLLHPTRLGHGVRSIEDLDLVKEIVEKDIVLETCPTSNIATKIYENYESHPVKKLHDLGVRVTVNSDDPPFFNATIQGEYDAMAGIGFSAQELLSMTRNAIESSFLPEDKKTEILTKLNEGHHHHHH | soluble |
| MGSDKIHHHHHHMAESKIAERAFYQPGASSIEGMPTTLQLFHNHPPIMLRPHWHAQVEVNYVMSGSVHYRMGDHDLTLNAGQMCIFWGGQPHQMDRSSDDSFYAGAHLPLVHFFRMRLPAAISSQLMDGATMVSGETDRADAENFGRWFRYVTSGDPAKAQHAVEELLLRVERMFLEPYSVISSADHGKRKEDDEGMAPSIGVVRMCDFIAANFLDDIDAADIARAASLHPKYAMNLFRKSTGMTLIKYLTLLRLSRAQAMLMTGKDNILQIAMESGFGSVSAFNKAFRQISGMSPSDFRRDMRAAAA | not soluble |
| MDYEILFSDETMNYADAGTYCQSRGMALVSSAMRDSTMVKAILAFTEVKGHDYWVGADNLQDGAYNFLWNDGVSLPTDSDLWSPNEPSNPQSWQLCVQIWSKYNLLDDVGCGGARRVICEKELDD | soluble |
| MGHHHHHHSHMPDNHKDPPDFNNLEMKLEERIELSREDQDIQSTSSSYPHCEALDHIVSMESTYDFHRQMAHKDLQKHRQEYEKASEKILELRKKLTDWNMDPKKRKWIEDDLDSLVRKQESALSRIRLAEKCTKRDLRNDPPPAYQPDDPLKDLRKNFEKKEKPTWNDVEKKKNGVFEFH | not soluble |
| AFLNKHFAKKNHNISVDELSHALELTDKAELTEENNILEGIIRFGGETAKEVMTSRLDVVDLDIRTPFKDVIQCIIDNAYSRIPIYSGTRDNIKGVLYIKDLLPHLNKGDNFRWQSLIRPAYFVPETKMIDDLLRDFQANKIHIAIVVDEFGGTSGIVTMEDIIEEIVGEIHDEYDD | soluble |
| MAHHHHHHMAAVTPPTSRALPLEATAIFPPQGSRELDRGAPPLESLSCTKRATAAQHIRGGEGRGAAPCLYIQTVSGSLLPVVLSPSPTHSPIPQRCEQYRDAYANVTICIDTEERSIQRLETFGGGTTITAILCKRYFPPFQ | not soluble |
| MLVFIDDGSTNIKLQWQESDGTIKQHISPNSFKREWAVSFGDKKVFNYTLNGEQYSFDPISPDAVVTTNIAWQYSDVNVVAVHHALLTSGLPVSEVDIVCTLPLTEYYDRNNQPNTENIERKKANFRKKITLNGGDTFTIKDVKVMPESIPAGYEVLQELDELDSLLIIDLGGTTLDISQVMGKLSGISKIYGDSSLGVSLVTSAVKDALSLARTKGSSYLADDIIIHRKDNNYLKQRINDENKISIVTEAMNEALRKLEQRVLNTLNEFSGYTHVMVIGGGAELICDAVKKHTQIRDERFFKTNNSQYDLVNGMYLIGN | soluble |
| GGALGGSIAFETVDAQDLLEGNQKLGMMLRSGYASASDGYLGGTSVYGLLSDHLGILVDVSGQNEDDYRGGSGEDALYTATKDRNYFAKLSLLDLEGHTLKVGATHNKSSGHYVSGSTGSDMGAPSASQKADFQVLKRDTYTLDHRYNPENPYVDIQTKIYRNERHLENRTSLLDVTSQTTGGSLKNVMTLDSGIFQHRFTLGGDYEQEKGIVENSLYENEAKTTGLFLQGLTRVEALKLHYGLRWDDYKSDFGPKTLSGDELSPNFGAEYELLSGLALFSNYSESVRAGGIIPLQWMAGITQSANFNNGEAFKPEISKQKEGGIKYSTRGVFADNDRMKLSATLFKTTIENLIDYTRSGGPSGKITKIFNQEEDLISKGYELKASWEKEAWATSLGFIHVEMEEGGEPVVVSRRKAASMGDRFVWDVSYQMTPELLLGYTLHAVDKLDDVPALYRRAGYVTHDLELQWRPASIKGLTWSLAVHNLLDKSYYEQSSFESGDSIVEEAGRDVRLAVKYKF | not soluble |
| HKEDKEDFAELSGIAVPAEITAEDGTMFKEALLFTHRGLSGPSVLQISSFWKAGQKVSINLVPNEDIALLLERSLEKHPNQSLKNTLAKVLPKRLVEVLIERKELMDKPLKQFNPKELASVVERLENWSIAPNGTEGYRTAEVTLGGVDTDHLSSKTMECKNIKGLYFIGEVMDVTGWLGGYNFQWCWSSGFVAGQWV | not soluble |
| WLDHVQNLVPGLDRQGLLEACEFARESEQRAIAAQNSWAEGTSSFQTGLEIAEILADLKLDQESLVAAVIYRGVREGKITLEAVNKHFGPVVAKLIEGVLRMAAISASLNPRHSMVLGTQAQVENLRKMLVAMVDDVRVALIKLAERTCAIRAVKNADEEKRHRVAREVFDIYAPLAHRLGIGHIKWELEDLSFRYLEPDQYKQIAKLLHERRLDREQYIANVMSQLKEALAATGVQADLSGRAKHIYSIWRKMQRKGLDFSQIYDVRAVRVLVPEMRDCYTALGIVHTLWRHIPKEFDDYIANPKENGYRSLHTAVIGPEGKVLEVQIRTHSMHEEAELGVCAHWRYKGTDVKASSNHYEEKISWLRQVLEWHEELGDIGGLAEQLRVDIEPDRVYVFTPDGHAIDLPKGATPLDFAYRVHTEVGHNCRGAKINGRIVPLNYSLQTGEQVEIITGKHSGPSRDWLNSNLGYVTTSRARAKIVHWFKLQARDQNVAAGKALIERELSRLALPPVDFDRLAEKANVRTAEDMFAALGAGDLRLAHLVNYAQQLVEPDRDSEQLELIPRKPSKIGHGKRGDVQIQGVGNLLTQMAGCCQPLPGDPIVGYITLGRGVTIHRQDCATALQLAGREPERMIQVSWGPEPVRTYPVDIAIRAYDRSGLLRDVSQVLLNERINVLAVNTRSNKEDNTATMQLTIEIPGLDALGRLLARVSQLPNIIEARRNR | not soluble |
| MIQQAQFNVQMAEEDRWLTQYPNMEMIVNNKGPKPIFPELNFNITGLEEKSRYVVLLSIQKFDNIRYGFKNGKWGPSKVRHATKKEQEIKYFLHPDGTKLGEELMKETIKFDTVRITNHKKFMDKDNVFFVETMHKYVPVLTVKNITNVESANHSMRMEVAQFFPVTVYNQESIGNWKSKFHKNATFENRLDGGNKRKNTNSREEPSSKRSKNETEIAVLDILQVASQSENYNESTNSGRLQNEISSSIHQFPSTSYQNQYPHAYPTVNTPPIYAQQFPAPFDEKQNQFYPKTDENLAPNCAQDASSLPNFAMNQKASFANQYPYHPYYHQYSQLDHGSPYQYMNNSINSDSSFQSSFSTENSYFDDNGNPIHYPYYPYK | not soluble |
| MAQSKHGLTKEMTMKYRMEGCVDGHKFVITGEGIGYPFKGKQAINLCVVEGGPLPFAEDILSAAFNYGNRVFTEYPQDIVDYFKNSCPAGYTWDRSFLFEDGAVCICNADITVSVEENCMYHESKFYGVNFPADGPVMKKMTDNWEPSCEKIIPVPKQGILKGDVSMYLLLKDGGRLRCQFDTVYKAKSVPRKMPDWHFIQHKLTREDRSDAKNQKWHLTEHAIASGSALP | soluble |
| MGSDKIHHHHHHMKKLLAIGILCIMVTAVMSGCVSEKEININNSNKITTNMPVSEKNITKILKYAKNMNLIYYDENGNIVNPYNGDKWKYKVFIDATGQKFLLKNKDDPVPSWAKEKLGDNFKVINVPLTRVIVMSSTEIALMEAINDDGSVIGSVKGIMWGKSYKWYFKDINKSLAEGKIIDVGSSSNPNWDKIIEINPQVIFVYPGYDGDKIIAKCKELGITYVADAEYLENDPLGRCEWVKMFAAFYNKEPEAKRYFEKVEDNCLKVINKTKNCPKVTVAWGYNSQWGCYVPENNSYVAKEIMFYCNGDYIFKDLNGTGSAKINYETFAERAKDADVWVVPSSTAWLSTFKEDNPGYETFKAVKNGRVFCESDDYWQLGLLKTDEVIMDLATILHPEAFKGRKTHFFLKYNIENNTATPFIAK | not soluble |
| MIDHQHLRLFQFCDSQFPTGAFSHSFGLETYIQRETVHDTETFIKWLHLFINEQLTYSDGIAMRIVYHALINNDKDKILDINQKLFVQNLPKETRIGAKQMGTRMVKLALDLYDSEWIQWYYNQMKNNKIKLHPAVCFTMLGHFLGVDVESIIDYYLYQNISSLTQNAVRAIPLGQTAGQQVVTEMIAHIEKTRNHILELDEIDFGMTAPGLELNQMEHENVHVRIFISLEHHHHHH | not soluble |
| VLQTRNYTCGPAALVTVLQRLGVNTTEDELAGLAGTTEDGTTMQGLLEASRAKGVNATGMKLNISELKENMIAYTINDGTGHYTVINGITNDTVKLADPSLGNIEMNIEEFTEIYSGYALVINDPNNPR | not soluble |
| GMYQTIEGFLQSWTYETESTQKMLDVLTDESLSQEIAPGHWTLGRVAWHIVTAIPVILSGTGLKFEGETKDYPVPTSAKTIADGYRKVNTAFVEALQSEWTDKDLTTINDFFGRPMPNSIFLMTLINHQNHHRGQMTVLMRQAGLTVPGVYGPAKEEWATAGMEAPKM | soluble |
| MGHHHHHHSHQVLTTSRKPGRKTRRFAKVLARFFNWKYVNRGKLSLEDLAGIAERFWIISEVKGNPAILNLYERGEKTLEVSFTLSNVNKIKMDDSPAVFKGKAPIDPLVFGAIPQTKAGLKLTRKVEFRKKVVVKGDEWLFFYDDEMLFKLRILKISRSS | soluble |
| MQYLEKKEIKEIQLALLDYIDETCKKHDIPYFLSYGTMLGAIRHKGMIPWDDDIDISLYREDYERLLKIIEEENHPRYKVLSYDTSSWYFHNFASILDTSTVIEDHVKYKRHDTSLFIDVFPIDRFTDLSIVDKSYKYVALRQLAYIKKSRAVHGDSKLKDFLRLCSWYALRFVNPRYFYKKIDQLVKNAVTNTPQYEGGVGIGKEGMKEIFPVDTFKELILTEFEGRMLPVPKKYDQFLTQMYGDYMTPPSKEMQEWYSHSIKAYRKNLEHHHHHH | soluble |
